# Laboratory results from patent US20210206842A1 (NATIONAL RESEARCH COUNCIL OF CANADA, published 2021).
# T1: peptide #2a (20 aa) (human)
# T1 construct: Custom-synthesized (Biomatik); also called pep #2a; P2a
# T1 peptide: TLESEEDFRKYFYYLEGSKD
# T2: peptide #2 (30 aa) (human)
# T2 construct: Custom-synthesized (Biomatik); also called pep #2; P2
# T2 peptide: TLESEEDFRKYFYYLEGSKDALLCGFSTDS
# T3: peptide #40a (40 aa) (human)
# T3 construct: Custom-synthesized (Biomatik); also called pep #40a; P40a
# T3 peptide: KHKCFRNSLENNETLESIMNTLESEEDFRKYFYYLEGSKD
# Key:
# VHH FC5 [1] = target: T4, VHH FC5; experiment: SPR, VHH flowed over immobilized FC5, 25 C
# T4 construct: put together from its FR and CDR entries; also called FC5-VHH; FC5 control
# Excerpt: (§1) Surface Plasmon Resonance for VHH antibodies. […] Monomeric VHH fractions were collected and protein concentration determined by measuring A280 measurement. Using a Biacore T200 instrument (GE Healthcare), approximately 500-1000 RUs of FC5DIE3IR, FC5 and an irrelevant VHH (2A3-H4) were immobilized on a CM5 Series S sensor chip (GE Healthcare) at pH 4.0 using standard amine coupling according to the manufacturer's instructions (GE Healthcare). […] Surfaces were regenerated by washing with a 120 s pulse of 10 mM glycine pH 1.5. Data were analyzed with Biacore T200 Software v 3.0 and affinities determined using steady state binding or a 1:1 binding model.
# (§2) Surface Plasmon Resonance (SPR).
# [2] = target: T5, FC5DIE3IR recombinant protein; experiment: SPR (Biacore T200), VHH flowed over immobilized FC5DIE3IR, steady-state fit, 25 C
# T5 construct: Made in CHO-3E7 cells; also called FC5DIE31R; FC5DIE3R
# Excerpt: as §1, §2
# human Nav1.7 polypeptide [3] = target: T6, human Nav1.7 polypeptide (human, UniProt Q15858 1-1988); experiment: cell-based or functional assay
# human Nav1.7 polypeptide [4] = target: T6, human Nav1.7 polypeptide; experiment: cell-based or functional assay; remark: listed apart in the source
# [5] = target: T5, FC5DIE3IR recombinant protein; experiment: ELISA dose curve of purified mAb on coated FC5DIE3IR
# Procedure: (§3) Screening. Hybridoma supernatants were screened by ELISA to detect specific binders. To this end, 96-well half-area plates (Costar #3690) were coated with 25 μl of FC5DIE3IR or FC5-VHH or FC5-hFc-1X0 at 5 μg/ml in PBS and incubated overnight at 4° C. Microplates were washed 3 times with PBS, blocked with PBS-BSA 1%, and 25 μl of hybridoma supernatants were added and incubated at 37° C., 5% CO₂ for 2 hours. […] After 4 washes with PBS-Tween 20 0.05%, 25 μl of a 1 mg/ml pNPP substrate solution was added and further incubated for one hour at 37° C.
# (§4) Evaluation of apparent affinity in ELISA. Purified antibodies were assessed for their binding activity by ELISA in a dose-dependent binding curve. Serial 1/3 dilutions of purified mAbs starting at 120 nM were applied onto wells and ELISA was performed as described above (screening section). The data were analyzed with GraphPad Prism software using one-site specific binding-with Hill slope non-linear regression curve fit model to determine Bₘₐₓ (maximum specific binding) and Kdₐₚₚ (concentration needed to achieve a half-maximum binding at equilibrium) for each mAb tested.
# VHH FC5 [6] = target: T4, VHH FC5; experiment: ELISA, hybridoma supernatant on coated purified FC5-VHH
# Procedure: as §3
# [7] = target: T5, FC5DIE3IR recombinant protein; experiment: ELISA, hybridoma supernatant on coated purified FC5DIE3IR
# Procedure: as §3
# peptide #2a (20 aa) = target: T1, peptide #2a (20 aa); experiment: ELISA on coated P2a, mAb at the dilutions 1:1000, 1:5000 and 1:10000, Abs 450nm
# Procedure: (§5) The peptides were custom-synthesized (Biomatik) and tested for antibody binding by ELISA. […] The wells were blocked with 1% BSA in TBS-T for 30 min and then incubated with 1:1000 dilution of anti-hNaᵥ1.7 mAb at room temperature (RT) for one hr.
# human Nav1.7 polypeptide [8] = target: T6, human Nav1.7 polypeptide; experiment: cell ELISA, hybridoma supernatant on live CHO cells expressing human Nav1.7, duplicate 1
# Procedure: (§6) Cell-ELISA. Sterile 96-well plates (Costar #3595) were pre-treated with 50 μl/well of branched polyethyleneimine (PEI, Sigma Cat #408727) at 25 μg/ml in PBS for 30 min at room temperature. PEI was removed and CHO-3E7 or hNAᵥ1.7-CHO (ChanTest cat #CT4003) were seeded at 6×10⁵ cells per well in FreeStyle F17 Expression Medium (Gibco Cat #A1383501) and incubated overnight at 37° C., 5% CO₂. Microplates were blocked with Starting block (Thermofisher Cat #37538) for 30 min at room temperature, and 50 μl of hybridoma supernatants were added and incubated at 4° C. for 3 h. […] After 10 washes with PBS, 50 μl of TMB substrate solution (Pierce Cat #34021) was added and further incubated for 60 min at room temperature.
# human Nav1.7 polypeptide [9] = target: T6, human Nav1.7 polypeptide; experiment: cell ELISA, hybridoma supernatant on live CHO cells expressing human Nav1.7, duplicate 2
# Procedure: as §6
# peptide #2 (30 aa) = target: T2, peptide #2 (30 aa); experiment: ELISA on coated peptide or FC5DIE3IR, mAb detected with HRP anti-mouse Fc, Abs 450nm
# Procedure: as §5
# peptide #3 (30 aa) = target: T7, peptide #3 (30 aa) (human); experiment: as above
# T7 construct: Custom-synthesized (Biomatik); also called pep #3; P3
# Procedure: as §5
# peptide #40a (40 aa) = target: T3, peptide #40a (40 aa); experiment: as above
# Procedure: as §5
# [10] = target: T5, FC5DIE3IR recombinant protein; experiment: apparent KD (Kdapp), ELISA dose curve of purified mAb on coated FC5DIE3IR; 3A8 clone (IgG2a), ELISA apparent KD
# Procedure: as §3, §4
# [11] = target: T5, FC5DIE3IR recombinant protein; experiment: SPR (Biacore T200), single cycle kinetics, Fc-captured mAb, FC5DIE3IR flowed (320 nM-20 nM), 1:1 model, 25 C
# Procedure: (§7) HBS-EP running buffer used for SPR experiments. […] Test binding experiments of FC5 control and FC5DIE3IR involved flowing 1 μM concentrations of SEC-pure material over the mAb surface at a flow rate of 30 μl/min for 5 min. Surfaces could be regenerated using 10 mM glycine, pH 1.7, with a 120 sec pulse at 20 μl/min. All SPR experiments were evaluated with Biacore T200 Software v 3.0. […] Regeneration conditions were the same as above. Data were fit to a 1:1 binding model and analyzed using the Biacore T200 Software v3.0.
# [12] = target: T5, FC5DIE3IR recombinant protein; experiment: ELISA on coated FC5DIE3IR, serial dilutions of purified mAb; fit One site - Specific binding with Hill slope
# Procedure: as §3, §4
# [13] = target: T5, FC5DIE3IR recombinant protein; experiment: SPR (Biacore T200), ligand 3A8 captured by anti-mouse IgG, FC5DIE3IR flowed at 1 µM, 25 °C, 1:1 binding model
# Procedure: as §7
# [14] = target: T5, FC5DIE3IR recombinant protein; experiment: SPR single cycle kinetics, ligand 3A8 Fc-captured, FC5DIE3IR flowed in five rising concentrations, 1:1 binding model
# Procedure: as §7
# VHH FC5 [15] = target: T4, VHH FC5; experiment: SPR (Biacore T200), ligand 3A8 captured by anti-mouse IgG, VHH FC5 flowed at 1 µM, 25 °C, 1:1 binding model; the fit is printed under a flat sensorgram and the filing says that 3A8 did not bind FC5
# Procedure: as §7
# [16] = target: T5, FC5DIE3IR recombinant protein; experiment: ELISA on coated FC5DIE3IR, serial dilutions of purified mAb, OD 405 nm; fit One site - Specific binding with Hill slope; apparent Kd in the unit of the concentration axis (nM), the table itself prints no unit
# Procedure: as §3, §4
# VHH FC5 [17] = target: T4, VHH FC5; experiment: SPR (Biacore T200), ligand 3A8 captured by anti-mouse IgG, VHH FC5 flowed at 1 µM, 25 °C, 1:1 binding model; the label reads KD: without a unit, M follows from kd/ka; the fit is printed under a flat sensorgram and the filing says that 3A8 did not bind FC5
# Procedure: as §7
# [18] = target: T5, FC5DIE3IR recombinant protein; experiment: SPR, multiple cycle kinetics, VHH over immobilized FC5DIE3IR
# [19] = target: T5, FC5DIE3IR recombinant protein; experiment: SPR (Biacore T200), VHH flowed over immobilized FC5DIE3IR, steady state fit, 25 C
# Excerpt: as §1, §2
# [20] = target: T5, FC5DIE3IR recombinant protein; experiment: SPR steady-state plot (Req against Conc up to 5e-6), VHH DI-D over immobilized FC5DIE3IR
# T4 sequence (VHH, as listed by the source): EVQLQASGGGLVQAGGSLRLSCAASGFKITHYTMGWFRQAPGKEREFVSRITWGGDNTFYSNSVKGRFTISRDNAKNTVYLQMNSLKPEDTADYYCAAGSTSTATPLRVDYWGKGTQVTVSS
# T7 sequence (peptide, as listed by the source): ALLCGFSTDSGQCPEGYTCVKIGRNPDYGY
binder,measurement,setting,value
"VHH DI-48 (VHH, From the FC5DIE3IR llama immune library; soluble tagged monomer in SPR; not shown: cmyc and His6 tags at the C-terminus) VHH: QVQLVESGGGLVQAGGSLRLSCAASGRTFSTYVMGWFRQTPGKEREFVAGFSWSGDYAIYVNSVKGRFTISRDNAKNTVYLQMNSLRPEDTAVYYCAARQRGGYSGRSYYTGRNDYEYWGQGTQVTVSS",binding result,VHH FC5 [1],no binding (tested: 312 nM-5000 nM)
same,Kd,[2],8400 nM
"anti-hNav1.7 mAb 3A8 (antibody, V domains shown, also called F233-3A8) VH: QVQLQQPGAELVKPGASVKLSCKASGYTFTNYWMHWVKQRPGQGLEWIGEINPSNGRANYNEKFKSKATLTVDKSSSTAYMQLSSLTSEDSAVYYCARSPYGYYDYWGQGTTLTVSS VL: DVLMTQTPLSLPVSLGDQASISCRSSQSLLHSNGNTYFHWYLQKPGQSPKLLIYKVSNRFFGVPDRFSGSGSGTDFTLKISRVEAEDLGVYFCSQITHVPLTFGAGTKLELK","concentration response relationship (IC50), hNav1.7 currents, whole-cell patch clamp, hNav1.7-HEK293 cells",human Nav1.7 polypeptide [3],900 nM
same,"Concentration response relationship (IC50), hNav1.7 currents, whole-cell patch clamp, hNav1.7-HEK293 cells, resting/closed state",human Nav1.7 polypeptide [4],850 nM
same,Efficacy (degree of maximum inhibition) %,human Nav1.7 polypeptide [4],16%
same,Reduction currents (%) at 0.5 µM,human Nav1.7 polypeptide [4],3.6%
same,Reduction currents (%) at 1 µM,human Nav1.7 polypeptide [4],8.2%
same,Reduction currents (%) at 2 µM,human Nav1.7 polypeptide [4],16%
same,Reduction currents (%) at 3 µM,human Nav1.7 polypeptide [4],15.4%
same,Time constant of the block of the hNav1.7 currents (1 µM),human Nav1.7 polypeptide [4],184 s
same,Time constant of the block of the hNav1.7 currents (2 µM),human Nav1.7 polypeptide [4],105 s
same,fold lower apparent KD than the 1G5 clone,[5],~2.5 fold
same,ELISA signal (OD 405 nm),VHH FC5 [6],0.029 OD 405 nm
same,ELISA signal (OD 405 nm),[7],0.995 OD 405 nm
same,binding result,peptide #2a (20 aa),binds
same,cell ELISA signal (OD 450 nm),human Nav1.7 polypeptide [8],0.102 OD 450 nm
same,cell ELISA signal (OD 450 nm),human Nav1.7 polypeptide [9],0.183 OD 450 nm
same,binding result,peptide #2 (30 aa),binds
same,binding result,peptide #3 (30 aa),no binding
same,binding result,peptide #40a (40 aa),binds
same,Kd,[10],1.9 nM
same,Kd,[11],36.7 nM
same,koff,[11],0.000259 s⁻¹
same,kon,[11],7050 M⁻¹ s⁻¹
same,Bmax,[12],2.15 OD405 nm
same,Kd,[13],17.1 nM
same,koff,[13],4.52e-05 s⁻¹
same,kon,[13],2640 M⁻¹ s⁻¹
same,Kd,[14],7.59 nM
same,koff,[14],3.15e-05 s⁻¹
same,kon,[14],4160 M⁻¹ s⁻¹
same,koff,VHH FC5 [15],0.0138 s⁻¹
same,kon,VHH FC5 [15],28700 M⁻¹ s⁻¹
same,Kd,[16],1.84 nM
same,Kd,VHH FC5 [17],482 nM
"VHH DI-D (VHH, From the naive LAC-M library; soluble tagged monomer in protein ELISA, SPR and patch clamp; also called phage D; clone D; not shown: 6xHis and c-Myc tags on the soluble monomer) VHH: QVKLEESGGGLVQPGGSLKLSCVASGFAFSSAPMDWVRKAPGKDVEWLSTIESDQDHTIYYANSVKGRFTISRDDVQNILYLQMNDLKIEDTATYYCQKRGEKKTRGQGTQVTVSS","concentration response relationship (IC50), hNav1.7 currents",human Nav1.7 polypeptide [3],1480 nM
same,Kd,[18],2000 nM
same,Kd,[19],1930 nM
same,Kd,[20],2040 nM
